First the molecules themselves.
T1: human ASCT2 (system ASC amino acid transporter 2), endogenous on human tumour cell lines (human, UniProt Q15758 1-541)
T1 construct: Endogenous ASCT2 of cell lines KMS-11 (stated to express ASCT2 mRNA), WiDr and OPM-2; also called SLC1A5; ASCT2 on KMS-11, OPM-2, WiDr cells
T1 sequence: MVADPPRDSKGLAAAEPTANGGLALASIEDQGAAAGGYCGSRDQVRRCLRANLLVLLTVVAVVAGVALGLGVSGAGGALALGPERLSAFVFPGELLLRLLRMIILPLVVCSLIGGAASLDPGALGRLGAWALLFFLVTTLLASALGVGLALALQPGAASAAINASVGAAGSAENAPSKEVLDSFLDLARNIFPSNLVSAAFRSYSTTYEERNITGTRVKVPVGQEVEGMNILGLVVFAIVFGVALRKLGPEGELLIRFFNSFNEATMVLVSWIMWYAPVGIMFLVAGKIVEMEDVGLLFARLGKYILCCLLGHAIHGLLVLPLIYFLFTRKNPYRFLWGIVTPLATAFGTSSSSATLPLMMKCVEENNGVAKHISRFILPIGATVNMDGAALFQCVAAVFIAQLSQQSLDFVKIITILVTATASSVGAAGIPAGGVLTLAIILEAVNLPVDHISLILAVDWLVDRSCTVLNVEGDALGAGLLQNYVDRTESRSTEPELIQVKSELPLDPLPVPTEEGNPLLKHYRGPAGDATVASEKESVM

T2: human ASCT2-myc/His (fusion protein in which myc/His was added to the C-terminal of human ASCT2), expressed … (human, UniProt Q15758 1-541)
T2 construct: Amino acid transporter with C-terminal myc/His tag, stably expressed in CHO/DG44 cells; cell lysates of these cells were used for Western blotting and immunoprecipitation; also called ASCT2/CHO; human ASCT2-myc/His gene-introduced CHO cell
T2 sequence: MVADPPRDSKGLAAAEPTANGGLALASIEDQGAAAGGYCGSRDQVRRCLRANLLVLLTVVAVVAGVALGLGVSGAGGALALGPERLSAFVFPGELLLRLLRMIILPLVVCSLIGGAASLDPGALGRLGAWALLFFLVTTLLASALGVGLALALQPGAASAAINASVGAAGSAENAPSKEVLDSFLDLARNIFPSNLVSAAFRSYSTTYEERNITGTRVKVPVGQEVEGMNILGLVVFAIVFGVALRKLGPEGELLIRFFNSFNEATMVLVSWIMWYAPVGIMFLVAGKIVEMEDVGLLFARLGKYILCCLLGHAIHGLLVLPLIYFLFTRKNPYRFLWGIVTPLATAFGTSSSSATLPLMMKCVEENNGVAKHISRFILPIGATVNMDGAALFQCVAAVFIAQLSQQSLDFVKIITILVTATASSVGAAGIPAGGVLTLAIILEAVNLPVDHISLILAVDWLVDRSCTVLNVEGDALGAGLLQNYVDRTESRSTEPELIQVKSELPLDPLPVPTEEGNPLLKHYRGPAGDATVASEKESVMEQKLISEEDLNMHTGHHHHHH

T3: mouse EL4 type ASCT2-myc/His (mouse/human chimeric ASCT2), expressed on CHO cells (human/mouse chimera, UniProt Q15758 1-541)
T3 construct: also called mEL4/CHO; mEL4
T3 sequence: T2 sequence with N367K

B1: anti-ASCT2 human chimeric antibody cKM4008 (antibody, V domains shown)
VH: QIQLVQSGPELKKPGETVKISCKASGYTFTTFGMSWVKQVPGKGLKWMGWIHTYAGVPIYGDDFKGRFAFSLETSASTAYLQINNVKNEDTATYFCARRSDNYRYFFDYWGQGTTLTVSS
VL: DIQMTQTTSSLSASLGDRVTISCRASQDIRNYLNWYQRKPHGTVKLLIYYTSRLHSGVPSRFSGSGSGTDYSLTISNLEQEDIATYFCQQGHTLPPTFGGGTKLEIKR
notes: VH and VL of KM4008 joined to human CH and CL of vector pKANTEX93; SDS-PAGE pattern of the IgG class
B2: anti-ASCT2 human chimeric antibody cKM4012 (antibody, V domains shown)
VH: B1 VH with F32Y, V40T, A55S, F64S, A76G, T78I, N102G
VL: B1 VL with T7I, R38Q, H41D, H92N
notes: VH and VL of KM4012 joined to human CH and CL of vector pKANTEX93; IgG class
B3: anti-ASCT2 human chimeric antibody cKM4018 (antibody, V domains shown)
VH: EVQLVESGGGLVQSGRSIRLSCAASGFSFSNYYMAWVRQAPSKGLEWVASITKGGGNTYYRDSVKGRFTFSRDNAKSTLYLQMDSLRSEDTATYYCARQVTIAAVSTSYFDSWGQGVMVTVSS
VL: DIVLTQSPALAVSLGQRATISCKTNQKVDYYGNSYVYWYQQKPGQQPKLLIYLASNLASGIPARFSGRGSGTDFTLTIDPVEADDTATYYCQQSRNLPYTFGAGTKLELKR
notes: VH and VL of KM4018 joined to human CH and CL of vector pKANTEX93; IgG class
B4: anti-ASCT2 monoclonal antibody KM4008 (antibody, V domains shown)
VH: B1 VH
VL: B1 VL
notes: mouse IgG3, kappa (amplified with a mouse Ig kappa primer)
B5: anti-ASCT2 monoclonal antibody KM4012 (antibody, mouse IgG2b, V domains shown)
VH: B1 VH with F32Y, V40T, A55S, F64S, A76G, T78I, N102G
VL: B1 VL with T7I, R38Q, H41D, H92N
notes: mouse IgG2b, kappa
B6: anti-ASCT2 humanized antibody KM4008HV2LV3 (antibody, V domains shown)
VH: QVQLVQSGSELKKPGAPVKVSCKASGYTFSTFGMSWVRQAPGQGLKWMGWIHTYAGVPIYGDDFKGRFVFSLDTSVSTAYLQISSLKAEDTAVYFCARRSDNYRYFFDYWGQGTTVTVSS
VL: DIQMTQSPSSLSASLGDRVTITCRASQDIRNYLNWYQQKPGKAPKLLIYYTSRLHSGVPSRFSGSGSGTDYTLTISSLQPEDFATYFCQQGHTLPPTFGQGTKLEIK
notes: Expressed from vector pKANTEX93 with human CH and CL; SDS-PAGE pattern of an IgG class antibody
B7: anti-ASCT2 humanized antibody KM4008HV10LV3 (antibody, V domains shown)
VH: B6 VH with V2I, S9P, V20I, S30T, R38K, L86V, V93T, V116L
VL: B6 VL
notes: as for B6

This note sets out measurements from patent US20120039904A1 (Kyowa Kirin, published 2012).

Where a chain is given by its changes, count along the chain named.

In the first experiment the target is T1, human ASCT2 (system ASC amino acid …). The experiment is described as follows: flow cytometry on OPM-2 cells. As for the experimental part:
Each of the human ASCT2-myc/His gene-introduced CHO cell obtained in Example 2, and the multiple myeloma cell line OPM-2 (DSMZ Accession No. ACC50) was cultured in a 5% CO₂ incubator for 3 to 4 days at 37° C. The human ASCT2-myc/His gene-introduced CHO cells were detached with a 0.02% EDTA solution (manufactured by Nacalai Tesque), and in order to avoid the non-specific adsorption of antibodies, the cells were blocked for 30 minutes at ice temperature using 1% BSA-PBS.
The cells were seeded into a 96-well U-bottom plate so as to give a density of 1×10⁵ to 5×10⁵ cells/100 μL/well. The plates were centrifugation at 1,500 rpm for 5 minutes (05PR-22, manufactured by Hitachi Koki), and then the supernatant was removed.
As the primary antibody, the purified antibody which was a test substance was diluted to give a final concentration of 0.01 μg/mL to 10 μg/mL in 1% BSA-PBS, and dispensed to the plate at 100 μL/well, followed by reaction at ice temperature for 60 minutes. After washing the cells with 1% BSA-PBS, FITC-labeled anti-human immunoglobulin G (H+L) (manufactured by Jackson Laboratories) diluted with 1% BSA-PBS was added as the secondary antibody, followed by reaction at ice temperature for 30 minutes protected from light. The cells were washed with 1% BSA-PBS and then suspended in PBS. The fluorescence intensity of the cells was measured by a flow cytometer (Cytomics FC500 MPL, manufactured by Beckman Coulter).
(In general: In flow cytometry, cells or beads pass a laser one at a time.)
B1: the binding result is “binds”.

Turning to B2, the binding result is recorded as “binds”.

As for B3, the binding result is on record as “binds”.

The target of a further experiment is T2, human ASCT2-myc/His (fusion protein in …). The experiment is described as follows: flow cytometry on human ASCT2/CHO cells; '+' = presence of reactivity.
Turning to B4, the binding result is recorded as “binds”.

For the molecule B5, the binding result is “binds”.

Another experiment addresses T3, mouse EL4 type ASCT2-myc/His …. As to the kind of experiment: flow cytometry on mEL4/CHO cells; '+' = presence of reactivity. The method, then: Using the mouse ASCT2/CHO and mouse/human chimeric ASCT2/CHO cells constructed in Examples 10 and 11 and FITC-labeled anti-mouse immunoglobulin G (H+L) (manufactured by Dako) or ALEXA488-labeled anti-rat immunoglobulin G […] (manufactured by Invitrogen) as the secondary antibody, the reactivity of anti-ASCT2 monoclonal antibodies KM4008, KM4012 and KM4018 was measured in the same manner as in Example 9(1).
In Table 2, the symbols “+”, “−”, and “±” represent the presence of reactivity, the absence of reactivity, and the decrease in reactivity, respectively.
On to B4, for which the binding result is listed as “binds”.

For the molecule B5, the binding result is reported as “binds”.

The target in a further experiment is T2, human ASCT2-myc/His (fusion protein in …). The experiment is described as follows: flow cytometry on human ASCT2-myc/His gene-introduced CHO cells.
Turning to B6, the binding result is reported as “binds”.

Consider B7, for which the binding result is recorded as “binds”.

B1: the binding result is on record as “binds”.

In the case of B2, the binding result is on record as “binds”.

On to B3, for which the binding result is “binds”.

The next experiment deals with T1, human ASCT2 (system ASC amino acid …). As to the kind of experiment: flow cytometry on KMS-11 cells.
For B6, the binding result was “binds”.

Consider B7, for which the binding result is given as “binds”.

As for B4, the binding result is “binds”.

As for B5, the binding result is listed as “binds”.
